Measured values as given in patent US20110200585A1.

Assays:
Cyno FcRn (cyno) = Cyno FcRn (cyno) (UniProt Q8SPV9); experiment: SPR, ProteOn XPR36; antibody amine-coupled to GLM chip, FcRn 8-2048 nM as analyte, equilibrium fit, pH 6.0
Human FcRn (human) = Human FcRn (human) (UniProt P55899); experiment: as above
Mouse FcRn (mouse) = Mouse FcRn (mouse) (UniProt Q61559); experiment: as above
rat FcRn (rat) = rat FcRn (rat) (UniProt P13599); experiment: as above
Fcγ (Val) = Fcγ (Val) (UniProt P08637); experiment: SPR, ProteOn XPR36; antibody amine-coupled to GLM chip, receptor 8-2048 nM as analyte, equilibrium fit, pH 7.4
Fcγ1 = Fcγ1 (UniProt P12314); experiment: as above
Fcγ2a (Arg) = Fcγ2a (Arg) (UniProt P12318); experiment: as above
Fcγ3a (Phe) = Fcγ3a (Phe) (UniProt P08637); experiment: as above
Chain of Fcγ3a (Phe) (P08637 17-208): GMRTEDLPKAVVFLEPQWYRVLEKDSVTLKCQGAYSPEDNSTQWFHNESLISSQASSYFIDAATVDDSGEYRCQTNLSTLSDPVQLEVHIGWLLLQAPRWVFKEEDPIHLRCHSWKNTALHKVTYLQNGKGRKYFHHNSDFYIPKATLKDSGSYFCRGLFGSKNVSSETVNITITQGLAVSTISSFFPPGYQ

Chain of rat FcRn (rat) (P13599 23-298 limits assumed, form in doubt, chain 1 of 2): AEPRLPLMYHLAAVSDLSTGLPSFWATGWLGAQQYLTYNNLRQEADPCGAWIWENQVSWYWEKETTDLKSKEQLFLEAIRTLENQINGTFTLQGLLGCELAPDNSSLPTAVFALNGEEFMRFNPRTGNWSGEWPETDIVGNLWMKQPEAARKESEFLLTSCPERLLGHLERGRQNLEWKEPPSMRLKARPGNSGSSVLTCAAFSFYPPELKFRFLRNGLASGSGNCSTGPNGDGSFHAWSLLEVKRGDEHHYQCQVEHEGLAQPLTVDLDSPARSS
Chain of rat FcRn (rat) (chain, as listed by the source limits assumed, form in doubt, chain 2 of 2): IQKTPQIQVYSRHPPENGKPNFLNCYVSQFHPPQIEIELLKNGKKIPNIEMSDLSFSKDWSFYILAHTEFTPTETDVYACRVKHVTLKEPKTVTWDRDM
Chain of Fcγ1 (P12314 16-288): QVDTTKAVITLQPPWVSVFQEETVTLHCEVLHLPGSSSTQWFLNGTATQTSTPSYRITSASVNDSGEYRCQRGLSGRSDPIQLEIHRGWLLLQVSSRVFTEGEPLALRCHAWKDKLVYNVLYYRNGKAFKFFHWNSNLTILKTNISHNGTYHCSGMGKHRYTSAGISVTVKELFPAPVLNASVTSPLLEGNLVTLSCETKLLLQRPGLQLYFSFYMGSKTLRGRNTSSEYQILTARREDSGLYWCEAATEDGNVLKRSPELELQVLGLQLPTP
Chain of Fcγ2a (Arg) (P12318 34-217 H167R): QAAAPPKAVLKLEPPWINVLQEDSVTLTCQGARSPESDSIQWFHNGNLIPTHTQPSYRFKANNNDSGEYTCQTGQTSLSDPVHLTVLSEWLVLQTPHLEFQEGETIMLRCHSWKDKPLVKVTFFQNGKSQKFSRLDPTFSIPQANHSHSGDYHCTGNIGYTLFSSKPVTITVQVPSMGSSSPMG
Chain of Fcγ (Val) (P08637 17-208 F176V): as the sequence (P08637 17-208) above, with F160V counted along it

| Kd (Cyno FcRn (cyno)) [nM] | Kd (Human FcRn (human)) [nM] | Kd (Mouse FcRn (mouse)) [nM] | Kd (rat FcRn (rat)) [nM] | Kd (Fcγ (Val)) [nM] | Kd (Fcγ1) [nM] | Kd (Fcγ2a (Arg)) [nM] | Kd (Fcγ3a (Phe)) [nM] | Substance |
| --- | --- | --- | --- | --- | --- | --- | --- | --- |
| 156 | 95 | 160 | 112 | 442 | 14.9 | 1290 | 1840 | Control Ab (Fc WT) (antibody) |
| 195 | 154 | 171 | 118 |  |  |  |  | Control Ab (Fc disabled) (antibody) |
